Results: patent US11685901B2, “Compositions and methods for organoid generation and disease modeling” (Salk Institute for Biological Studies, priority 2016, dated 2023)

B1: rhWNT4: recombinant human (rh)Wnt4 protein (R&D Systems) (protein, UniProt P56705 23-351, looked up)
Protein Wnt-4: SNWLYLAKLSSVGSISEEETCEKLKGLIQRQVQMCKRNLEVMDSVRRGAQLAIEECQYQFRNRRWNCSTLDSLPVFGKVVTQGTREAAFVYAISSAGVAFAVTRACSSGELEKCGCDRTVHGVSPQGFQWSGCSDNIAYGVAFSQSFVDVRERSKGASSSRALMNLHNNEAGRKAILTHMRVECKCHGVSGSCEVKTCWRAVPPFRQVGHALKEKFDGATEVEPRRVGSSRALVPRNAQFKPHTDEDLVYLEPSPDFCEQDMRSGVLGTRGRTCNKTSKAIDGCELLCCGRGFHTAQVELAERCSCKFHWCCFVKCRQCQRLVELHTCR
B2: rhWNT5a: recombinant human Wnt5a protein (protein, UniProt P41221 62-380, looked up)
Protein Wnt-5a: IIGAQPLCSQLAGLSQGQKKLCHLYQDHMQYIGEGAKTGIKECQYQFRHRRWNCSTVDNTSVFGRVMQIGSRETAFTYAVSAAGVVNAMSRACREGELSTCGCSRAARPKDLPRDWLWGGCGDNIDYGYRFAKEFVDARERERIHAKGSYESARILMNLHNNEAGRRTVYNLADVACKCHGVSGSCSLKTCWLQLADFRKVGDALKEKYDSAAAMRLNSRGKLVQVNSRFNSPTTQDLVYIDPSPDYCVRNESTGSLGTQGRLCNKTSEGMDGCELMCCGRGYDQFKTVQTERCHCKFHWCCYVKCKKCTEIVDQFVCK

Assays:
[1] = system: human islet-like organoids; assay: Gaussia luciferase insulin secretion assay in human islet-like organoids; format: cell-based; conditions: 10 to 100 per assay
Protocol: Mouse islets, human islets and human islets like organoids were plated in their respective growth media with 10 μg/ml Polybrene® polymer (Santacruz). Viruses were then added. After overnight culture, cells were placed in fresh growth media. […] Then, insulin secretion assays were performed. […] The cells were then incubated in KRBB (100 μl/well) with 3 mM for 30 min and then sequentially incubated with 20 mM glucose with or without 100 nM Exendin-4 or 3 mM glucose with 20 mM KCl (100 μl/well). To determine Gaussia Luciferase activity as indicator of insulin secretion levels, 10 μl of samples are used for Luciferase assay using Pierce Gaussia Luciferase Flash Assay Kit (Prod #16159, Thermo Scientific).

[2] = system: INS-1 cells; assay: Proinsulin-NanoLuc Gaussia luciferase insulin secretion assay in INS-1 cells; format: cell-based, rat; conditions: INS-1 stably expressing Proinsulin-NanoLuc; G20 mM + 100 nM Ex4; 20 mM KCl
Protocol: INS-1 cells were infected with the virus by spinfection (800 g, 1 hour at 37 degrees Celsius) and then changed to fresh INS-1 growth media. Seventy-two (72) hours after transfection, INS-1 cells were treated with 5 μg/ml Blasticidin (Invitrogen) for 7 days to select for Proinsulin-NanoLuc expressing cells. For insulin secretion assay, the cells (5×10^4-1×10^5 cells/well in 96 well) were pre-cultured in 3 mM glucose KRBB (100 μl/well). The cells were then incubated in KRBB (100 μl/well) with 3 mM and then sequentially incubated with 20 mM glucose with or without 100 nM Exendine-4 or 3 mM glucose with 20 mM KCl (100 μl/well). To determine Gaussia Luciferase activity as indicator of insulin secretion levels, 10 μl of samples are used for Luciferase assay using Pierce Gaussia Luciferase Flash Assay Kit (Prod #16159, Thermo Scientific).

[3] = system: human islet-like organoids; assay: hIAPP toxicity, propidium iodide staining of islet-like organoids; format: cell-based
Source text: FIG. 7 is a schematic showing modeling of human Type 2 diabetes in a dish. Generation of functional human organs such as a liver, pancreas, and islets provides new therapeutic strategies in drug-screening and modeling of human type 2 diabetes.
Generation of functional human organs according to methods described herein provides new strategies for drug-screening and disease modeling. Specifically, functional organoids can be used as models of type 2 diabetes for drug screening (FIG. 7).

[4] = system: hiPSC-derived islet organoids; assay: Gene expression (qPCR) in hiPSC-derived islet organoids treated with WNT proteins; format: cell-based, human; conditions: for ERRγ-mitochondrial metabolic pathway: FIGS. 12A-12H; for Esrrg gene expression / expression of mitochondrial genes involved in oxidative phosphorylation (Cox7a2, Ndufa1, Ndufa7), lactate dehydrogenase (Ldha) and Fltp: organoids generated in the absence of hADSC or HUVECs, increasing doses rhWNT4 0-200 ng/ml, rhWNT5a 0-400 ng/ml
Protocol: Human PSCs, including iPSC or ESC, were initially cultured in matrigel-coated plates (2 dimensional (2D) cultures. Cells were then treated with Accutase (Innovative Cell Technologies, Inc., San Diego, Calif.) to generate a single cell suspension, washed with PBS and centrifuged at 1000-1300 rpm for 5 minutes to pellet cells. Cells were resuspended with 3DKG Stem TeSR™ Base Medium (Stemcell Technologies, Cambridge, Mass.) with 10 μM Y-27632 (a RHO/ROCK pathway inhibitor compound) and cultured for an additional for 5 to 7 days until PSC sphere growth reached 50-100 μm diameter. Media was then replaced with differentiation media supplemented with 0.015% Kelcogel and 0.3% Methylcellulose. The culture medium was changed to differentiation medium ([…]) containing 100 ng/ml human Activin (R&D Systems), 25 ng/ml recombinant human Wnt3a (R&D Systems) or 3 μM CHIR99021, a glycogen synthase kinase GSK-3 inhibitor (Axon Medchem, Reston, Va.; or Selleckchem) for 1 day and then to differentiation medium (S1) containing 100 ng/ml human Activin for another 2 days (Stage 1, Pancreatic Endoderm). Subsequently, the medium was replaced with differentiation medium (S2) containing 50 ng/ml FGF7 (R&D Systems) for 2 days, and then with differentiation medium (S3) containing 50 ng/ml FGF7, 0.25 μM SANT-1 (Sigma), 1 μM Retinoic Acid (Sigma), 100 nM LDN193189 (an ALK2 and ALK3 inhibitor, Sigma) and 100 nM α-Amyloid Precursor Protein Modulator TPB for 3 days. Subsequently, this medium was replaced with differentiation medium (S4) containing 0.25 μM SANT-1, 50 nM Retinoic Acid, 10 μM Alk5 inhibitor II, 1 μM T3 for 3 days. Subsequently, the medium was replaced with differentiation medium (S5) containing 100 nM LDN193189, 100 nM Gamma Secretase inhibitor XX GSiXX (Millipore) 10 μM Alk5 inhibitor II, 1 μM T3 for 7 days. Subsequently, the medium was replaced with differentiation medium (S5) containing 10 uM Trolox (Calbiochem), 2 μM R428 (Selleckchem), 1 mM N-acetyl cysteine, 10 μM Alk5 inhibitor II, 1 μM T3 for an additional 7 to 20 days. After confirmation of the insulin gene expression by either reporter expression or qPCR (typically on day 20-30), the medium was changed to differentiation medium (S5) containing 10 μM Trolox (Calbiochem), 2 μM R428 (Selleckchem), 1 mM N-acetyl cysteine, 10 μM Alk5 inhibitor II, 1 μM T3 and 100 ng/ml recombinant human (rh)Wnt4 (R&D Systems), 400 ng/ml rhWnt5a, or 50% Wnt5a conditioned medium for 1-20 days. Wnt5a conditioned medium was prepared by culturing an L-Wnt5a cell line (ATCC, CRL-2814) in DMEM with 10% FBS, 1% Penicillin-streptomycin for 4 days after cells had reached 70-100% confluence in T175-T225 Frasko cell culture flasks.
Total RNA was extracted using TRIzol reagent (Invitrogen) and RNeasy KIT (Qiagen). Reverse transcription was performed with a SuperScript III First-Strand Synthesis System kit (Invitrogen) or PrimeScript RT reagent kit (TAKARA). Real time quantitative RT-PCR (qPCR) was performed using SYBR Green (Bio-Rad).
(FIG. 12A). […] In addition, mitochondrial genes involved in oxidative phosphorylation (Cox7a2, Ndufa1, Ndufa7), lactate dehydrogenase (Ldha) and Fltp (a Wnt/planar cell polarity (PCP) effector and reporter gene) were induced in hiPSC-derived islet organoids that were generated in the absence of supporting hADSC or HUVECs, in response to increasing doses of rhWNT4 (0, 10, 25, 50, 100, 200 ng/ml) and rhWNT5a (0, 25, 50, 100, 200, 400 ng/ml), (FIG. 12C). Mitochondrial (Mitotracker; Mito-Red) and insulin (Insulin-GFP) levels were increased in hiPSC-derived islet organoids (day 27) after 8 days treatment with PBS or WNT4 (100 ng/ml). (FIG. 12D). Human iPSC-derived islet organoids (day 27) were generated after 8 days treatment with PBS or WNT4 (100 ng/ml). (FIG. 12E). […]

[5] = system: hiPSC-derived islet organoids; assay: Insulin secretion assay (human c-peptide ELISA) of hiPSC-derived islet organoids; format: cell-based; conditions: organoids day 22, 100 ng/ml for 12 days, G3 mM, G20 mM, KCL20 mM, without hADSC and HUVECs
Protocol: Insulin release from intact islets was monitored using batch incubation methods (Yoshihara et al., 2010, Nat. Commun. 1:127). Briefly, overnight-cultured isolated pancreatic islets (RPMI-1640 supplemented with 10% (v/v) fetal bovine serum and 1% (v/v) Antibiotic-Antimycotic (Gibco)) were pre-cultured at 37° C. for 30 min (Krebs-Ringer bicarbonate buffer (KRBB) containing 129.4 mM NaCl, 3.7 mM KCl, 2.7 mM CaCl2, 1.3 mM KH2PO4, 1.3 mM MgSO4, 24.8 mM NaHCO3 (equilibrated with 5% CO2, 95% O2, pH7.4), 10 mM HEPES and 0.2% (v/v) BSA (fraction V, Sigma) (KRBH) with 3 mM glucose). Pancreatic islets were then incubated in KRBH buffer (500 μl/10 islets) with 3 mM or 20 mM glucose to determine insulin secretion levels. After 30 min, islets were pelleted by centrifugation and insulin levels determined by ELISA (Rat/mouse Insulin ELISA KIT (Millipore) and Human Insulin ELISA KIT (Millipore) for mouse and human islets, respectively). For human iPSC derived cells, the cells (1×10^6 cells/well in 24 well) were pre-cultured in 3 mM glucose KRBH buffer (500 μl/well). The cells were then incubated in KRBB (200 μl/well) with 3 mM or 20 mM glucose to determine c-peptide secretion levels as indicator of insulin secretion levels. After 30 min, the cells were pelleted by centrifugation and c-peptide levels were determined by human c-peptide ELISA KIT (Millipore).

[6] = system: hiPSC-derived islet organoids; assay: Fluorescence imaging and FACS analysis of hiPSC-derived islet organoids (Mitotracker, Insulin-GFP); format: cell-based, human; conditions: organoids day 27, 8 days treatment; for Insulin production (FACS): rhWNT4 100 ng/ml, rhWNT5a 400 ng/ml, conditioned media 50%, compared with PBS and control conditioned media
Protocol: FIGS. 12A-12H show a set of bar graphs and images illustrating the role of WNT proteins in the metabolic maturation of iPSC-derived islet organoids. […] FIG. 12B is a bar graph showing the induction of Esrrg gene expression in hiPSC-derived islet organoids, generated in the absence of supporting hADSC or HUVECs, in response to increasing doses of WNT4 (0, 10, 25, 50, 100, 200 ng/ml) and WNT5a (0, 25, 50, 100, 200, 400 ng/ml). FIG. 12C is a bar graph showing the induction of mitochondrial genes involved in oxidative phosphorylation (Cox7a2, Ndufa1, Ndufa7), lactate dehydrogenase (Ldha) and Fltp (a Wnt/planar cell polarity (PCP) effector and reporter gene) in hiPSC-derived islet organoids, generated in the absence of supporting hADSC or HUVECs, in response to increasing doses of WNT4 (0, 10, 25, 50, 100, 200 ng/ml) and WNT5a (0, 25, 50, 100, 200, 400 ng/ml). […] FIGS. 12F, 12G, and 12H show a set of bar graphs illustrating the results of FACS analyses of hiPSC-derived islet organoids (day 27) after 8 days treatment with PBS, WNT4 (100 ng/ml), WNT5a (400 ng/ml), control fibroblast conditioned media (50%), or WNT5a secreting fibroblast conditioned media (50%). The WNT proteins used were recombinant human (rh) proteins.
Human PSCs, including iPSC or ESC, were initially cultured in matrigel-coated plates (2 dimensional (2D) cultures. Cells were then treated with Accutase (Innovative Cell Technologies, Inc., San Diego, Calif.) to generate a single cell suspension, washed with PBS and centrifuged at 1000-1300 rpm for 5 minutes to pellet cells. Cells were resuspended with 3DKG Stem TeSR™ Base Medium (Stemcell Technologies, Cambridge, Mass.) with 10 μM Y-27632 (a RHO/ROCK pathway inhibitor compound) and cultured for an additional for 5 to 7 days until PSC sphere growth reached 50-100 μm diameter. Media was then replaced with differentiation media supplemented with 0.015% Kelcogel and 0.3% Methylcellulose. […]

Molecule | stimulated insulin secretion of pooled organoids (secreted luciferase) [1] | Luciferase secretion (insulin secretion) [2] | ERRγ-mitochondrial metabolic pathway [4] | Esrrg gene expression [4] | expression of mitochondrial genes involved in oxidative phosphorylation (Cox7a2, Ndufa1, Ndufa7), lactate dehydrogenase (Ldha) and Fltp [4] | Insulin production (FACS) [6] | also measured
[Cl-].[K+] [potassium chloride] | robust | increased |  |  |  |  | 
Exendin-4 |  | increased |  |  |  |  | 
GLP-1: incretin | enhanced GSIS |  |  |  |  |  | 
hIAPP: human amyloid polypeptide, an inducer of β cell loss in type 2 diabetic patients (KCNTATCATQRLANFLVHSSNNFGAILSSTNVGSNTY; Islet amyloid polypeptide; UniProt P10997 34-70, looked up) |  |  |  |  |  |  | G0/G1 arrest ([3]; 24 hours): dose-dependently induced G0/G1 arrest; apoptosis (propidium iodide staining in G0/G1 stage cells) ([3]; increasing concentrations): induces apoptosis
B1 |  |  | activate | induced | induced | found | functional maturation based on secretion of human c-peptide ([5]; listed as Wnt4): sufficient to induce in vitro functional maturation; functional maturation based on secretion of human c-peptide ([5]; listed as rhWnt4): functional maturation; Mitochondrial (Mitotracker; Mito-Red) and insulin (Insulin-GFP) levels ([6]; 100 ng/ml): increased
B2 |  |  | activate | induced | induced | found | 
